# Source: patent US6051418
# Columns and labels:
# [1] = molecular target: Factor VIII dB695 (human) (UniProt P00451)
# [2] = molecular target: Factor VIII dB695-HCII (human)
# [3] = molecular target: Factor VIII obtained from plasma
substance,measurement,setting,value
thrombin (enzyme),second order rate constant of activation by thrombin (M^-1 s^-1 × 10^-6),[1],3e-06 M⁻¹ s⁻¹
same,second order rate constant of activation by thrombin (M^-1 s^-1 × 10^-6),[2],2.32e-05 M⁻¹ s⁻¹
same,second order rate constant of activation by thrombin (M^-1 s^-1 × 10^-6),[3],2.1e-06 M⁻¹ s⁻¹
